B1: Mutation 3 (antibody, V domains shown)
VH: QVQLQQSGAELVRPGTSVKISCKASGYTFTDYWIGWVKQRPGHGLEWIGDMWPGDLYINYQEKFKGKATLTADTSSNTAYMQLSSLTSEDSAVYFCTNFITVGGLDYWGRGTSLTVSS
VL: DVVMTQTPLTLSVTIGQPASISCKSSQSLLSSDGRTYLNWLLQRPGQSPKRLIYLVTKVDSGVPDRFTGSGSVTDFTLKISRVESEDLGVYYCWQGTHFFHTFGAGTKLEVKR
B2: recombinant anti-dengue virus NS1 11E2 antibody (WT) (antibody, mouse IgG2a, kappa, V domains shown)
VH: B1 VH with T28S, W52V
VL: B1 VL with Q27N, S31D, R35K, V59I, Q95W, F100P
B3: WT 1-7 (antibody, V domains shown)
VH: B1 VH with T28S, D31E, W52V, L105V
VL: B1 VL with S31E, R35K, V59I, Q95Y, F100A
B4: WT 1-4 (antibody, V domains shown)
VH: B1 VH with T28S, W52V, L56I, I100L, L105V
VL: B1 VL with S31E, V59I, Q95Y, F100A
B5: WT 1-20 (antibody, V domains shown)
VH: B1 VH with T28S, W52V, L56I
VL: B1 VL with S31E, V59L, Q95W, F100A
B6: Mutation 1-40 (antibody, V domains shown)
VH: B1 VH with W52F, L56V, V102L, L105I
VL: B1 VL with Q27N, S31D, T57S, V59I, Q95Y, F100P
B7: Mutation 1-28 (antibody, V domains shown)
VH: B1 VH with W52F, L56I, Q61N, V102L, L105I
VL: B1 VL with Q27N, S31D, T57S, V59I, Q95Y, F100P
B8: WT 1-1 (antibody, V domains shown)
VH: B1 VH with T28S, D31E, W52V, Q61N, L105V
VL: B1 VL with S31E, R35K, V59I, Q95Y, F100A
B9: Mutation 1-19 (antibody, V domains shown)
VH: B1 VH with D31E, W52F, L56I, Q61N, V102L, L105I
VL: B1 VL with Q27N, S31D, T57S, V59I, Q95Y, F100P
B10: Mutation 1-25 (antibody, V domains shown)
VH: B1 VH with D31E, W52F, L56V, I100L, V102L
VL: B1 VL with Q27N, S31D, T57S, V59I, Q95Y, F100P
B11: Mutation 1-46 (antibody, V domains shown)
VH: B1 VH with D31E, W52F, L56I, Q61N, V102L, L105I
VL: B1 VL with Q27N, S31D, T57S, Q95Y, F100P
B12: WT 1-30 (antibody, V domains shown)
VH: B1 VH with T28S, D31E, W52V, Q61N, I100L, L105V
VL: B1 VL with Q27N, S31E, R35K, V59I, Q95W, F100A

Substitutions are numbered along the chain they refer to.

Experimental findings from patent US20210301000A1 are described below.

The target of one assay is (DN-(I+II+III+IV)-NS) antigen (self-produced, expressed in insects) (dengue virus). Nature of the assay: capture ELISA, antibody at 1000 ng/ml. (In general: ELISA stands for enzyme-linked immunosorbent assay.)
The molecule B1 displayed an OD450 (ref 630) of 0.847 OD.
Same read-out and setting: to B2 belongs 2.32 OD.

The target is the same in a further assay. The assay can be described thus: capture ELISA, antibody at 1.372 ng/ml.
Consider B2, for which the OD450 (ref 630) is 0.297 OD.

The target is the same in another assay. The assay can be described thus: capture ELISA, antibody at 4.115 ng/ml.
For B2, the OD450 (ref 630) amounted to 0.448 OD.

The target is the same in another assay. The assay can be described thus: capture ELISA, antibody at 12.346 ng/ml.
B2 gave an OD450 (ref 630) of 0.838 OD.

For a further assay the target is unchanged. The assay can be described thus: capture ELISA, antibody at 37.037 ng/ml.
In turn, B2 had an OD450 (ref 630) of 1.66 OD.

The target is the same in a further assay. Nature of the assay: capture ELISA, antibody at 111.111 ng/ml.
Molecule B1 came in with an OD450 (ref 630) of 0.056 OD.
Same read-out and setting: to B2 belongs 2.2 OD.

For a further assay the target is unchanged. Nature of the assay: capture ELISA, antibody at 333.333 ng/ml.
For the molecule B1, the OD450 (ref 630) worked out at 0.347 OD.
On the same count and under the same terms, to B2 belongs 2.38 OD.

For the next assay the target is unchanged. Nature of the assay: capture ELISA, antibody at 0 ng/ml (blank).
B2 yielded an OD450 (ref 630) of 0.163 OD.

The next assay concerns the target DN quality control product recombinant protein (a recombinant antigen produced by the company itself) (dengue virus). Nature of the assay: AMO sensor, antibody on sensor, antigen in solution.
As for B3, the dissociation constant Kd stood at 65.5 nM, the koff is 0.000231 s⁻¹ and the kon was 3530 M⁻¹ s⁻¹.
For the molecule B4, the Kd turned out to be 28 nM, the koff was 0.000142 s⁻¹ and the kon came out at 5080 M⁻¹ s⁻¹.
For B5 the same measures were 45.9 nM, 0.000143 s⁻¹ and 3120 M⁻¹ s⁻¹.
With B2, the equilibrium dissociation constant (Kd) came to 58.8 nM, the koff was determined as 0.000398 s⁻¹ and the kon stood at 6770 M⁻¹ s⁻¹.
The matching figures for B6: 4.05 nM, 0.000171 s⁻¹ and 42300 M⁻¹ s⁻¹.
For B7 the same measures were 6.59 nM, 0.000337 s⁻¹ and 51200 M⁻¹ s⁻¹.
The matching figures for B8: 12.8 nM, 5.86e-05 s⁻¹ and 4570 M⁻¹ s⁻¹.
As for B9, the Kd came out at 4.72 nM, the koff was determined as 0.000279 s⁻¹ and the kon came to 59200 M⁻¹ s⁻¹.
For B10 the same measures were 6.04 nM, 0.000273 s⁻¹ and 45100 M⁻¹ s⁻¹.
For B11, the Kd is 8 nM, the koff worked out at 0.000479 s⁻¹ and the kon came to 59900 M⁻¹ s⁻¹.
The matching figures for B12: 20.4 nM, 0.000149 s⁻¹ and 7280 M⁻¹ s⁻¹.

As usually defined, the Kd is the free concentration of one partner at which half of the binding sites on the other are occupied at equilibrium, for simple one-to-one binding. The koff is the first-order rate constant of dissociation. For orientation: kon means a measure of how fast the partners come together.
